# Assay results as given in patent publication US8541367B2, “Plasma anti-diabetic NUCB2 peptide (pladin) and uses thereof” (Landing Biotech, Inc., priority 2009, dated 2013).
# Entries after “also recorded” stand apart in the source; their conditions may differ.
# Tests used:
# [1] = tested on: db/db mice; test: Blood glucose of db/db mice after injection of test substance; format: in vivo, mouse; details: for anti-hyperglycemic effect (blood glucose): peripheral/i.v. injection, db/db, dose not stated; for active duration of anti-hyperglycemic effect in vivo: i.v. injection, hyperglycemic db/db mice
# [2] = tested on: db/db mice; test: as above; format: in vivo, mouse; details: for effect of pre-treatment on the anti-diabetic effect of nesfatin-1: GW9662 0.45 μg/g i.v. or Compound C 20 mg/kg i.p. before 100 ug Nesfatin-1 i.v., blood glucose in 6 hours; for effect of pre-injection on the anti-hyperglycemic effect of rPladin: GW9662 0.45 ug/g i.v., rosiglitazone or Compound C 20 ug/g i.p., then 10 nmol rPladin i.v., 3 hours
# Procedure: GW9662, a PPAR-gamma irreversible inhibitor, was i.v. injected into the tail vein of db/db mice at the dose of 0.45 μg per gram body weight. After 30 minutes, 100 ug Nesfatin-1 was injected into the tail vein of db/db mice. Blood glucose was measured in 6 hours.
# Compound C, a 5′-AMP-activated protein kinase (AMPK) specific inhibitor, was intraperitoneally injected to db/db mice at the dose of 20 mg per kg body weight. Subsequently, 100 ug Nesfatin-1 was injected into the tail vein of db/db mice. Blood glucose was measured in 6 hours.
# Without anesthesia, mice were placed into a restricting tube. The testing substance such as nesfatin-1 or rPladin was i.v. injected via mice tail vein with a total volume of 150 μL. After that mice were returned to the cages with food and water available freely. In the i.p. injection experiment, mice without anesthesia were injected with the testing substances directly into the peritoneal with a total volume of 200 μL.
# db/db mice of 16 to 18 weeks old were i.v. injected with 0.45 ug/g of GW9662 (Sigma, St. Louis, Mo.), i.p. injected with 20 ug/g rosiglitazone (Sigma, St. Louis, Mo.) or 20 ug/g Compound C (Sigma, St. Louis, Mo.), and then randomly assigned to receive the i.v. injection of 10 nmol rPladin or the same volume of saline as the control. Blood glucose was measured at 3 hours after the injection using the glucose meter (Roche, Indianapolis, Ind.).
# [3] = tested on: db/db mice; test: Food intake and body weight of db/db mice; format: in vivo, mouse; details: i.v. plasmin inhibitor to db/db (AMCA 15 mg/day once daily for three days)
# [4] = tested on: db/db mice; test: Serum nesfatin-1 / pladin in db/db after i.v. plasmin inhibitor (HPLC); format: in vivo, mouse; details: 30 minutes after i.v. injection
# Procedure: Hypothalamus in acetic acid supplemented with protease inhibitor cocktail tablets (Roche, Indianapolis, Ind.) was homogenized, sonicated and heated at 95° C. for 15 minutes. The samples were then centrifuged at 13,200 rpm at 4° C. for 30 minutes. The supernatants were finally collected as their protein contents were determined by the Bradford assay (Thermo-Fisher Sci. Rockford, Ill.). Mouse serum was freshly prepared by drawing blood through ophthalmectomy. About […] hypothalamic total proteins or 25 μL serum were analyzed with Waters Delta 600E/2487/717 HPLC system using an analytical C18 reverse phase column (4.6×250 mm/5 μm, Hambon, Zhangjiagang, CN). Nesfatin-1 was eluted with a linear gradient from 20%-40% solvent B (solvent A: water with 0.1% trifluoroacetic acid, solvent B: acetonitrile with 0.1% trifluoroacetic acid) for 20 minutes at the flow rate of 1 ml/minute. The purified nesfatin-1 was used as the standard to determine the retention time and plot the standard curve. The fraction collected at the retention time was sent for the mass spectrometry analysis.
# Mouse serum was freshly prepared by drawing blood through ophthalmectomy. The sera of plg^−/−lepr^−/− and db/db mice were directly analyzed with Waters Delta 600E/2487/717 HPLC System using a C18 reverse phase column (4.6×250 mm, 5 μm, Hambon, Zhangjiagang, CN) and eluted with a linear gradient from 20%-40% acetonitrile in 0.1% TFA for 20 minutes at the flow rate of 1 ml/minute (Enriori et al., 2007). Compared with db/db mice, the divergent fractions eluted in plg^−/−lepr^−/− mice were collected for the determination of molecular weight using the Applied Biosystems 4800 Proteomics Analyzer (Applied Biosystems). The MS spectra were acquired in the liner mode at a range of peptide mass from 3,000 to 20,000 Dalton.
# [5] = biological target: plasmin (Homo sapiens, UniProt P00747); test: Incubation with plasmin in vitro (proteolysis); format: biochemical; details: incubated with plasmin in vitro
# Sequence of plasmin (P00747 581-810 limits assumed, species assumed): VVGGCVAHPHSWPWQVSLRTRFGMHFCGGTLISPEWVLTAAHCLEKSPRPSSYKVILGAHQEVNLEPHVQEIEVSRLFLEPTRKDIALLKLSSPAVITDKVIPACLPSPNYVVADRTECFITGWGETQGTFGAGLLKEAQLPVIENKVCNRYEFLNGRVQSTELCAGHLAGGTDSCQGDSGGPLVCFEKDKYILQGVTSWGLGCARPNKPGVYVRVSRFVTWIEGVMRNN
# Sequence of plasmin (P00747 97-580 partner limits assumed, species assumed): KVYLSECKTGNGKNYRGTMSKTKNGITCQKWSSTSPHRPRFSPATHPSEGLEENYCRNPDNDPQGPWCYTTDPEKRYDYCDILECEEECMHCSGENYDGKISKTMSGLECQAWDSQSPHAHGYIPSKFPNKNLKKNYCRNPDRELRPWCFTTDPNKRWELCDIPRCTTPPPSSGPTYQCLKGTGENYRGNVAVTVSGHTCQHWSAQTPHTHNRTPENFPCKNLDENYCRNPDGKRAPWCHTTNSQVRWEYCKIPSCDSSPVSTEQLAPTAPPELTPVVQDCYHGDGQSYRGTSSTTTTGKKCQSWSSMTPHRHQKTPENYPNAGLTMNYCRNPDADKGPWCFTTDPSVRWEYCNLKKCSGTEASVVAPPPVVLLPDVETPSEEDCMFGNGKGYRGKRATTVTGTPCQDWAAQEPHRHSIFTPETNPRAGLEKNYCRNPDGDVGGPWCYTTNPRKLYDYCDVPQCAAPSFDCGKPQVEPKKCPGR
# From the text: The recovery of hypothalamic nesfatin-1 in plg^−/−lepr^−/− was consistent to its normalization in food intake and body weight. Fasted mice always had less nesfatin-1 in hypothalamus than their freely feeding counterparties (FIG. 2b). Furthermore, plasminogen deficiency provided a unique approach to study the chronic effect of elevated nesfatin-1 in hyperphagic obese animals, which was impossible for the i.c.v. or i.p. administration due to the short half-time of nesfatin-1. Consequently, agrp and npy were found reduced in plg^−/−lepr^−/−, while pomc was elevated compared with plg^+/+lepr^−/− (FIG. 3), contradicting to the previous report that i.c.v. nesfatin-1 didn't alter the expression of pomc, npy and agrp. Consistent to the present finding, the same group reported the up-regulation of pomc by i.p. nesfatin-1 in NTS recently.
# Carefully examining the amino acid sequence of pladin (SEQ ID NO: 23), it has several putative cleavage sites by plasmin (FIG. 11A).
molecule,measurement,setting,value
"ADIEEIRSGR LSQELDLVSH (ADIEEIRSGRLSQELDLVSH; A synthetic peptide which was the C-terminal portion of pladin) [SEQ ID NO:22, synthetic 20 amino acids peptide, C-terminal portion of pladin]","anti-hyperglycemic activity, fold less than rPladin","[1]; i.v., db/db mice",more than 3 fold
same,anti-hyperglycemic effect (blood glucose),[1],anti-hyperglycemic
O=C(Nc1ccccc1)c1cc([N+](=O)[O-])ccc1Cl [GW9662],effect of pre-treatment on the anti-diabetic effect of nesfatin-1,[2],fully inhibited
same,effect of pre-injection on the anti-hyperglycemic effect of rPladin,[2],abolished; also recorded: prevented
c1cc(-c2cnn3cc(-c4ccc(OCCN5CCCCC5)cc4)cnc23)ccn1 [Compound C],effect of pre-treatment on the anti-diabetic effect of nesfatin-1,[2],fully inhibited
same,effect of pre-injection on the anti-hyperglycemic effect of rPladin,[2],abolished; also recorded: prevented
"ANAEDIKSGKLSQELDFVSH (amino acids by MALDI-TOF/TOF with Trypsic Peptides) [SEQ ID NO:24, synthetic 20 amino acids peptide, a portion of NUCB1]",anti-hyperglycemic effect (blood glucose),[1],anti-hyperglycemic
aprotinin,body weight,[3],reduction
same,food intake,[3],reduction
same,circulating (serum) nesfatin-1,[4],increased
"TKVHNTEPVENARIEPPDTGLYYDEYAALETDPHFREKLQKADIEEIRSGRLSQELDLVSHKVR (protein, amino acid sequence of Mutant A92) TKVHNTEPVENARIEPPDTGLYYDEYAALETDPHFREKLQKADIEEIRSGRLSQELDLVSHKVR",active duration of anti-hyperglycemic effect in vivo,[1],> 12 h
A4: pladin mutant A4 (Lys28→Ala) (protein) peptide: TKVHNTEPVENARIEPPDTGLYYDEYLAQVIEVLETDPHFREKLQKADIEEIRSGRLSQELDLVSHKVR,proteolysis by plasmin,[5],resistant to plasmin proteolysis
same,active duration of anti-hyperglycemic effect in vivo,[1],18 h
"acetylated rPladin: rPladin acetylated with N-acetylimidazole; three Tyr and three Lys residues modified (protein, also: three Tyr and three Lys acetylated with N-acetylimidazole, rPladin acetylated with N-acetylimidazole; three Tyr and three Lys residues modified) peptide: TKVHNTEPVENARIEPPDTGLYYDEYLKQVIEVLETDPHFREKLQKADIEEIRSGRLSQELDLVSHKVR",proteolysis by plasmin,[5],resistant to the proteolysis by plasmin
same,active duration of anti-hyperglycemic effect in vivo,[1],12 h
same,anti-hyperglycemic activity compared with reference peptide,"[1]; i.v., db/db mice",unchanged
A5: pladin mutant A5 (Lys13→Ala as printed; Arg13 in sequence) (protein) peptide: TKVHNTEPVENAAIEPPDTGLYYDEYLKQVIEVLETDPHFREKLQKADIEEIRSGRLSQELDLVSHKVR,proteolysis by plasmin,[5],resistant to plasmin proteolysis
same,active duration of anti-hyperglycemic effect in vivo,[1],12 h
"TKVHNTEPVENARIEPPDTGLYYDEYAKAAAAALETDPHFREKLQKADIEEIRSGRLSQELDLVSHKVR (protein, amino acid sequence of Mutant A90) TKVHNTEPVENARIEPPDTGLYYDEYAKAAAAALETDPHFREKLQKADIEEIRSGRLSQELDLVSHKVR",active duration of anti-hyperglycemic effect in vivo,[1],> 24 h
"VPVDRAAPPQEDSQATETPDTGLYYHRYLQEVINVLETDGHFREKLQAANAEDIKSGKLSQELDFVSHNVRTKLDELK (protein, amino acids recombinant peptide of NUCB1, 78 amino acids recombinant peptide, N-terminal portion of NUCB1) VPVDRAAPPQEDSQATETPDTGLYYHRYLQEVINVLETDGHFREKLQAANAEDIKSGKLSQELDFVSHNVRTKLDELK","molar anti-hyperglycemic activity, fold higher than rPladin or nesfatin-1","[1]; i.v., db/db mice, within 3 hours",at least 2 fold
same,"active duration, fold less than rPladin or nesfatin-1",[1]; in vivo,at least 2 fold
same,anti-hyperglycemic effect (blood glucose),[1],anti-hyperglycemic
"TKVHNTEPVENARIEPPDTGLYYDEYSAAAALETDPHFREKLQKADIEEIRSGRLSQELDLVSHKVR (protein, amino acid sequence of Mutant A91) TKVHNTEPVENARIEPPDTGLYYDEYSAAAALETDPHFREKLQKADIEEIRSGRLSQELDLVSHKVR",active duration of anti-hyperglycemic effect in vivo,[1],> 24 h
